Measurements reported in US20230365679A1 (KUNMING SINOWAY NATURAL PHARMACEUTICALS, published 2023).

Legend:
[1] = target: CD22 on the cell membrane of CD22-positive cell lines (Raji, REH, CA46) (UniProt P20273); experiment: FACS on Raji cells
[2] = target: CD22 on the cell membrane of CD22-positive cell lines (Raji, REH, CA46) (UniProt P20273); experiment: FACS on REH cells; ambiguous fit, Top printed as (very wide)
[3] = target: CD22 on the cell membrane of CD22-positive cell lines (Raji, REH, CA46) (UniProt P20273); experiment: FACS on CA46 cells; ambiguous fit, Top printed as (very wide)
[4] = target: Biotinylated Human Siglec-2/CD22 Protein, Fc, Avitag (ACROBiosystems, SI2-H82F8) (human) (UniProt P20273); experiment: ELISA, plate coated with CD22-Fc antigen; fit of a non-binding control (R2 0.1733), not meaningful
[5] = target: T1, CD22 on the cell membrane of CD22-positive cell lines (Raji, REH, CA46) (UniProt P20273 20-847, limits assumed); experiment: FACS on REH cells
T1 construct: whole, on cells; Raji and CA46: relatively high expression of CD22; REH: relatively medium expression; also called CD22 on cell membrane
Protocol: (§1) Raji cells (having a relatively high expression of CD22), CA46 cells (having a relatively high expression of CD22), and REH cells (having a relatively medium expression of CD22) were selected, and the cell binding ability of the antibodies was evaluated by curves of mean fluorescence intensity versus concentration obtained through FACS.

[6] = target: T1, CD22 on the cell membrane of …; experiment: FACS on Raji cells
Protocol: as §1

[7] = target: T1, CD22 on the cell membrane of …; experiment: FACS on CA46 cells
Protocol: as §1

[8] = target: T2, Biotinylated Human Siglec-2/CD22 Protein, Fc, Avitag (ACROBiosystems, SI2-H82F8) (human, UniProt P20273 20-687, biotinylated (Avitag)); experiment: ELISA, plate coated with CD22-Fc antigen, anti-human Fd-HRP
T2 construct: Bought reagent; also called CD22 antigen; CD22-Fc-biotinylated antigen; not shown: Fc tag of the bought protein; Avitag
Protocol: ELISA plates were coated with 200 ng/mL CD22 antigen (Biotinylated Human Siglec-2/CD22 Protein, Fc, Avitag™, ACROBiosystems (ARCO)) at 100 μl per well, at 4° C. overnight. Next day, the plates were washed with PBST, then blocked by the added blocking buffer (PBST+3% milk) at 37° C. for 1-2 hours, and then washed again with PBST.
After incubation, the plates were washed with PBST. 100 μl of 1:10000 diluted secondary antibody (Mouse anti-human IgG Fd secondary antibody, HRP; REF: SA5-10190, Invitrogen, USA) was added to each well of the ELISA plates which were then incubated at 37° C. for 1 hour. Thereafter, the plates were washed with PBST.
100 μl of TMB solution (TMB Single-Component Substrate solution, Cat #PR1200, Beijing Solarbio Science & Technology Co., Ltd.) was added to each well of the plates which were then incubated at room temperature for 15 minutes. Then 50 μl of stop buffer (ELISA stop buffer (10×), Cat #C1058, Beijing Solarbio Science & Technology Co., Ltd.) was added thereto, and the plates were shaken. Absorbance values at 450 nm were detected.

[9] = target: T2, Biotinylated Human Siglec-2/CD22 …; experiment: SPR (Biacore 8K), CD22-Fc-biotin on SA chip, antibody as analyte, 1:1 binding model
Protocol: Following reagents and materials were mainly used: [0066] Antigen to be immobilized: CD22-Fc-biotinylated antigen: ACROBiosystems (ARCO)) SI2-H82F8; [0067] Antibodies to be tested: Anti-CD22 mAbs; [0068] Chip SA; [0069] Immobilization buffer: (1) 1 M NaCl/50 mM NaOH; [0070] (2) 1 M NaCl/50 mM NaOH/50% isopropanol; [0071] Running buffer: 1×HBS-EP buffer; [0072] Regeneration buffer: Glycine, pH 1.5.
Experimental steps were as follows: [0074] 1) A sensor chip SA was taken and its surface was cleaned with ultrapure water; and after dried under nitrogen, was inserted into the slot. The immobilization buffers (1) and (2) were added to the columns A1 and A2 in a 96 well plate, and 3.85 nM CD22-Fc-biotinylated antigen were added at 200 μL per well into corresponding wells in column A3, respectively. The program was set to immobilize the antigen, and the immobilization was stopped when delta RU of about 70 RU was achieved. [0075] 2) Program “binding test” was set, including association time of 250 s and dissociation time of 600 s, and a test was performed using HA22 mAb, a dissociation degree of 4-5% was shown. [0076] 3) The HA22 mAb was diluted to 1000 nM and subsequently to 100 nM, and further 2-fold diluted starting from 100 nM for 8 times, at a final volume of about 250 μL per well. The program was set up to detect the binding capacity of that antibody No. 1 to the antigen, with association time of 250 s and dissociation time of 600 s. […] [0077] 4) All the antibodies, i.e., mAb-1 to mAb-6, were diluted to 1000 nM and subsequently to 100 nM, and further 2-fold diluted starting from 100 nM for 8 times, at a final volume of about 250 μL per well. The same program as that in step 3 was set up to detect affinity in batches. Results were analyzed using Biacore 8K evaluation.

[10] = target: T1, CD22 on the cell membrane of …; experiment: FACS on CA46 cells; ambiguous fit, Top printed as (very wide)
Protocol: as §1

Q: For Isotype control (antibody), which EC50 [1] is on record?
A: 32.6 µg/mL

Q: What about the EC50 [2] of the same molecule?
A: 8250 µg/mL

Q: And the EC50 [3]?
A: 4590 µg/mL

Q: What about the EC50 [4] of the same molecule?
A: 0.000154 µg/mL

B1: HA22 mAb (antibody, human IgG1, kappa, V domains shown)
VH: EVQLVESGGGLVKPGGSLKLSCAASGFAFSIYDMSWVRQTPEKCLEWVAYISSGGGTTYYPDTVKGRFTISRDNAKNTLYLQMSSLKSEDTAMYYCARHSGYGTHWGVLFAYWGQGTLVTVSA
VL: DIQMTQTTSSLSASLGDRVTISCRASQDISNYLNWYQQKPDGTVKLLIYYTSILHSGVPSRFSGSGSGTDYSLTISNLEQEDFATYFCQQGNTLPWTFGCGTKLEIKR
notes: also called positive antibody HA22 mAb
Q: Which EC50 [5] does the source give for B1 here?
A: 0.172 µg/mL

Q: What about the EC50 [6] of the same molecule?
A: 0.152 µg/mL

Q: What about the EC50 [7] of the same molecule?
A: 0.221 µg/mL

Q: And the EC50 [8]?
A: 0.0203 µg/mL

Q: What about the Kd [9] of the same molecule?
A: 242 pM

Q: And the koff [9]?
A: 8.93e-05 s⁻¹

Q: What about the kon [9] of the same molecule?
A: 370000 M⁻¹ s⁻¹

B2: mAb-1 (antibody, human IgG1, kappa, V domains shown)
VH: EVQLVESGGGLVKPGGSLRLSCAASGFAFSIYDMSWVRQTPEKCLEWVAYISSGGGTTYYPDSVKGRFTISRENAKNSLYLQMNSLKSEDTAMYYCARHSGYGTHWGVLFAYWGQGTMVTVSS
VL: DIQMTQTTSSLSASLGDRVTISCRASQDISNYLNWYQQKPDGTVKLLIYYTSILHSGVPSRFSGSGSGTDYSLTISNLEQEDFATYFCQQGNTLPWTFGCGTKLEIKR
notes: Reconstructed IgG1/kappa antibody, humanized heavy chain with HA22 light chain; also called V2 HC + HA22 LC
Q: For B2, which EC50 [5] is on record?
A: 0.812 µg/mL

Q: And the EC50 [6]?
A: 0.152 µg/mL

Q: And the EC50 [7]?
A: 0.521 µg/mL

Q: What about the EC50 [8] of the same molecule?
A: 0.0154 µg/mL

Q: And the Kd [9]?
A: 604 pM

Q: And the koff [9]?
A: 0.000262 s⁻¹

Q: What about the kon [9] of the same molecule?
A: 434000 M⁻¹ s⁻¹

B3: mAb-3 (antibody, human IgG1, kappa, V domains shown)
VH: EVQLVESGGGLVKPGGSLRLSCAASGFAFSIYDMSWVRQAPGKCLEWVAYISSGGGTTYYPDSVKGRFTISRENAKNSLYLQMNSLKSEDTAMYYCARHSGYGTHWGVLFAYWGQGTMVTVSS
VL: DIQMTQSTSTLSASVGDRVTITCRASQDISNYLNWYQQRPDGSVKLLIYYTSILHSGVPSRFSGSGSGTDYTLTISSLQDEDFATYFCQQGNTLPWTFGCGTKVEIKR
notes: Humanized IgG1/kappa antibody; also called V1 HC + V2 LC
Q: For B3, which EC50 [7] is on record?
A: 1.61 µg/mL

Q: And the EC50 [8]?
A: 0.0139 µg/mL

Q: What about the Kd [9] of the same molecule?
A: 713 pM

Q: What about the koff [9] of the same molecule?
A: 0.000404 s⁻¹

Q: And the kon [9]?
A: 567000 M⁻¹ s⁻¹

B4: mAb-5 (antibody, human IgG1, kappa, V domains shown)
VH: EVQLVESGGGLVKPGGSLRLSCAASGFAFSIYDMSWIRQAPGKCLEWVAYISSGGGTTYYPGSVKGRFTISRENAKNSLYLQMNSLRSEDTAVYYCARHSGYGTHWGVLFAYWGQGTMVTVSS
VL: DIQMTQSPSTLSASVGDRVTITCRASQDISNYLNWFQQRPGQSPRLLIYYTSILHSGVPSRFSGSGSGTDYTLTISSLQPEDFATYYCQQGNTLPWTFGCGTKVEIKR
notes: Humanized IgG1/kappa antibody; also called V5 HC + V4 LC
Q: With B4 as the molecule, how does the EC50 [8] read?
A: 0.0163 µg/mL

Q: And the EC50 [10]?
A: ~20200 µg/mL

Q: And the Kd [9]?
A: 382 pM

Q: And the koff [9]?
A: 0.000411 s⁻¹

Q: What about the kon [9] of the same molecule?
A: 1.08e+06 M⁻¹ s⁻¹

B5: mAb-2 (antibody, human IgG1, kappa, V domains shown)
VH: EVQLVESGGGLVKPGGSLRLSCAASGFAFSIYDMSWVRQTPEKCLEWVAYISSGGGTTYYPDSVKGRFTISRENAKNSLYLQMNSLKSEDTAMYYCARHSGYGTHWGVLFAYWGQGTMVTVSS
VL: DIQMTQSTSTLSASVGDRVTITCRASQDISNYLNWYQQRPDGSVKLLIYYTSILHSGVPSRFSGSGSGTDYTLTISSLQDEDFATYFCQQGNTLPWTFGCGTKVEIKR
notes: Humanized IgG1/kappa antibody; also called V2 HC + V2 LC
Q: What does the source list for B5?
A: EC50 [6]: 0.276 µg/mL; EC50 [7]: 0.23 µg/mL; EC50 [8]: 0.00906 µg/mL; Kd [9]: 470 pM; koff [9]: 0.000177 s⁻¹; kon [9]: 376000 M⁻¹ s⁻¹

B6: mAb-4 (antibody, human IgG1, kappa, V domains shown)
VH: EVQLVESGGGLVKPGGSLRLSCAASGFAFSIYDMSWVRQAPGKCLEWVAYISSGGGTTYYPDSVKGRFTISRENAKNSLYLQMNSLKSEDTAMYYCARHSGYGTHWGVLFAYWGQGTMVTVSS
VL: DIQMTQSPSTLSASVGDRVTITCRASQDISNYLNWFQQRPGQSPRLLIYYTSILHSGVPSRFSGSGSGTDYTLTISSLQPEDFATYYCQQGNTLPWTFGCGTKVEIKR
notes: Humanized IgG1/kappa antibody; also called V1 HC + V4 LC
Q: How did the EC50 [6] turn out when B6 was run?
A: 0.206 µg/mL

Q: What about the EC50 [7] of the same molecule?
A: 0.152 µg/mL

Q: What about the EC50 [8] of the same molecule?
A: 0.0139 µg/mL

Q: What about the Kd [9] of the same molecule?
A: 145 pM

Q: And the koff [9]?
A: 9.91e-05 s⁻¹

Q: And the kon [9]?
A: 685000 M⁻¹ s⁻¹

B7: mAb-6 (antibody, human IgG1, kappa, V domains shown)
VH: EVQLVESGGGLVKPGGSLRLSCAASGFAFSIYDMSWIRQAPGKCLEWVAYISSGGGTTYYPGSVKGRFTISRENAKNSLYLQMNSLRAGDTAVYYCARHSGYGTHWGVLFAYWGQGTMVTVSS
VL: DIQMTQSPSTLSASVGDRVTITCRASQDISNYLNWFQQRPGQSPRLLIYYTSILHSGVPSRFSGSGSGTDYTLTISSLQPEDFATYYCQQGNTLPWTFGCGTKVEIKR
notes: Humanized IgG1/kappa antibody; also called V4 HC + V4 LC
Q: With B7 as the molecule, how does the EC50 [7] read?
A: 2.75 µg/mL

Q: And the EC50 [8]?
A: 0.0104 µg/mL

Q: What about the Kd [9] of the same molecule?
A: 315 pM

Q: What about the koff [9] of the same molecule?
A: 0.00022 s⁻¹

Q: What about the kon [9] of the same molecule?
A: 699000 M⁻¹ s⁻¹
